From the supplement of paper PMC5998384

Legend:
[1] = tested on: HeLa Kyoto; assay: solubility in G1/S (NP-40 vs SDS abundance) (log2 ratio); higher = more soluble; conditions: cell cycle stage: G1/S
[2] = tested on: HeLa Kyoto; assay: solubility change mitosis vs G1/S (difference of NP-40 vs SDS log2 ratios) (log2 ratio difference); higher = more soluble in mitosis
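Wherever solubility change mitosis vs G1/S (difference of NP-40 vs SDS log2 ratios) is given: synchronized HeLa Kyoto cells (double thymidine block for G1/S, nocodazole release for mitosis), protein amounts in NP-40 versus SDS lysates quantified by mass spectrometry, three biological replicates.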
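Wherever solubility in G1/S (NP-40 vs SDS abundance) is given: HeLa Kyoto cells arrested at G1/S by double thymidine block, proteins quantified by TMT10plex mass spectrometry in mild NP-40 versus SDS extracts, three biological replicates.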

Chain of PEX16 (chain, as listed by the source): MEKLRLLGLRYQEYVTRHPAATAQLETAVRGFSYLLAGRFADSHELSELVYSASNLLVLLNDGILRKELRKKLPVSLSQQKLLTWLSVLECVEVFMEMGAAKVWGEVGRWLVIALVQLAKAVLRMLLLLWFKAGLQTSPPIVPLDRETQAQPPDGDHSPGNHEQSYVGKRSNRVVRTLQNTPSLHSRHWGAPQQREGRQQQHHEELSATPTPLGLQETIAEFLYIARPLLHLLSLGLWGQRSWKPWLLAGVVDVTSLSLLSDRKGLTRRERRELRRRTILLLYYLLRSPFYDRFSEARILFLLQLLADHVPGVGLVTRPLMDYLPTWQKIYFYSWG

Row | Substance | solubility in G1/S (log2) [1] | solubility change mitosis (log2) [2]
1 | MSSLPRRAKVQVQDVVLKDEFSSFSELSSASEEDDKEDSAWEPQKKVPRSRKQPPPKESKPKRMPRVKKNAPQISDGSEVVVVKEELNSSVAIADTALEDRKNKLDTVQTLKTAKTKQKCAAQPHTVRRTKKLKVEEETSKASNLEGESNSSETPSTSTVWGGTCKKEENDDDFTFGQSALKKIKTETYPQGQPVKFPANANSTKEEVEMNWDMVQVLSERTNIEPWVCANIIRLFNDDNTIPFIIRYRKELINNLDADSLREVQQTLEELRAVAKKVHSTIQKIKKEGKMSECLLKAMLNCKTFEELEHVSAPYKTGSKGTKAQRARQLGLEGAARALLEKPGELSLLSYIRPDVKGLSTLQDIEIGVQHILADMIAKDKDTLDFIRNLCQKRHVCIQSSLAKVSSKKVNEKDVDKFLLYQHFSCNIRNIHHHQILAINRGENLKVLTVKVNISDGVKDEFCRWCIQNRWRPRSFARPELMKILYNSLNDSFKRLIYPLLCREFRAKLTSDAEKESVMMFGRNLRQLLLTSPVPGRTLMGVDPGYKHGCKLAIISPTSQILHTDVVYLHCGQGFREAEKIKTLLLNFNCSTVVIGNGTACRETEAYFADLIMKNYFAPLDVVYCIVSEAGASIYSVSPEANKEMPGLDPNLRSAVSIARRVQDPLAELVKIEPKHIGVGMYQHDVSQTLLKATLDSVVEECVSFVGVDINICSEVLLRHIAGLNANRAKNIIEWREKNGPFINREQLKKVKGLGPKSFQQCAGFIRINQDYIRTFCSQQTETSGQIQGVAVTSSADVEVTNEKQGKKKSKTAVNVLLKPNPLDQTCIHPESYDIAMRFLSSIGGTLYEVGKPEMQQKINSFLEKEGMEKIAERLQTTVHTLQVIIDGLSQPESFDFRTDFDKPDFKRSIVCLEDLQIGTVLTGKVENATLFGIFVDIGVGKSGLIPIRNVTEAKLSKTKKRRSLGLGPGERVEVQVLNIDIPRSRITLDLIRVL [SRBD1] | -0.649 | 0.249
2 | MSDIVEKTLTALPGLFLQNQPGGGPAAAKASFSSRLGSLVRGITALTSKHEEEKLIQQELSSLKATVSAPTTTLKMMKECMVRLIYCEMLGYDASFGYIHAIKLAQQGNLLEKRVGYLAVSLFLHESHELLLLLVNTVVKDLQSTNLVEVCMALTVVSQIFPCEMIPAVLPLIEDKLQHSKEIVRRKAVLALYKFHLIAPNQVQHIHIKFRKALCDRDVGVMAASLHIYLRMIKENSSGYKDLTGSFVTILKQVVGGKLPVEFNYHSVPAPWLQIQLLRILGLLGKDDQRTSELMYDVLDESLRRAELNHNVTYAILFECVHTVYSIYPKSELLEKAAKCIGKFVLSPKINLKYLGLKALTYVIQQDPTLALQHQMTIIECLDHPDPIIKRETLELLYRITNAQNITVIVQKMLEYLHQSKEEYVIVNLVGKIAELAEKYAPDNAWFIQTMNAVFSVGGDVMHPDIPNNFLRLLAEGFDDETEDQQLRLYAVQSYLTLLDMENVFYPQRFLQVMSWVLGEYSYLLDKETPEEVIAKLYKLLMNDSVSSETKAWLIAAVTKLTSQAHSSNTVERLIHEFTISLDTCMRQHAFELKHLHENVELMKSLLPVDRSCEDLVVDASLSFLDGFVAEGLSQGAAPYKPPHQRQEEKLSQEKVLNFEPYGLSFSSSGFTGRQSPAGISLGSDVSGNSAETGLKETNSLKLEGIKKLWGKEGYLPKKESKTGDESGALPVPQESIMENVDQAITKKDQSQVLTQSKEEKEKQLLASSLFVGLGSESTINLLGKADTVSHKFRRKSKVKEAKSGETTSTHNMTCSSFSSLSNVAYEDDYYSNTLHDTGDKELKKFSLTSELLDSESLTELPLVEKFSYCSLSTPSLFANNNMEIFHPPQSTAASVAKESSLASSFLEETTEYIHSNAMEVCNNETISVSSYKIWKDDCLLMVWSVTNKSGLELKSADLEIFPAENFKVTEQPGCCLPVMEAESTKSFQYSVQIEKPFTEGNLTGFISYHMMDTHSAQLEFSVNLSLLDFIRPLKISSDDFGKLWLSFANDVKQNVKMSESQAALPSALKTLQQKLRLHIIEIIGNEGLLACQLLPSIPCLLHCRVHADVLALWFRSSCSTLPDYLLYQCQKVMEGS [AP4E1] | -0.402 | -0.0567
3 | PEX16 | -0.248 | -0.0414
4 | CEP290 | 0.253 | 0.0705
5 | MGEPSREEYKIQSFDAETQQLLKTALKDPGAVDLEKVANVIVDHSLQDCVFSKEAGRMCYAIIQAESKQAGQSVFRRGLLNRLQQEYQAREQLRARSLQGWVCYVTFICNIFDYLRVNNMPMMALVNPVYDCLFRLAQPDSLSKEEEVDCLVLQLHRVGEQLEKMNGQRMDELFVLIRDGFLLPTGLSSLAQLLLLEIIEFRAAGWKTTPAAHKYYYSEVSD [MIF4GD] | 0.085 | 0.238
6 | MRLRNGTFLTLLLFCLCAFLSLSWYAALSGQKGDVVDVYQREFLALRDRLHAAEQESLKRSKELNLVLDEIKRAVSERQALRDGDGNRTWGRLTEDPRLKPWNGSHRHVLHLPTVFHHLPHLLAKESSLQPAVRVGQGRTGVSVVMGIPSVRREVHSYLTDTLHSLISELSPQEKEDSVIVVLIAETDSQYTSAVTENIKALFPTEIHSGLLEVISPSPHFYPDFSRLRESFGDPKERVRWRTKQNLDYCFLMMYAQSKGIYYVQLEDDIVAKPNYLSTMKNFALQQPSEDWMILEFSQLGFIGKMFKSLDLSLIVEFILMFYRDKPIDWLLDHILWVKVCNPEKDAKHCDRQKANLRIRFKPSLFQHVGTHSSLAGKIQKLKDKDFGKQALRKEHVNPPAEVSTSLKTYQHFTLEKAYLREDFFWAFTPAAGDFIRFRFFQPLRLERFFFRSGNIEHPEDKLFNTSVEVLPFDNPQSDKEALQEGRTATLRYPRSPDGYLQIGSFYKGVAEGEVDPAFGPLEALRLSIQTDSPVWVILSEIFLKKAD [MGAT4B] | 0.0108 | -0.107
7 | MENELPVPHTSSSACATSSTSGASSSSGCNNSSSGGSGRPTGPQISVYSGIPDRQTVQVIQQALHRQPSTAAQYLQQMYAAQQQHLMLQTAALQQQHLSSAQLQSLAAVQQASLVSNRQGSTSGSNVSAQAPAQSSSINLAASPAAAQLLNRAQSVNSAAASGIAQQAVLLGNTSSPALTASQAQMYLRAQMLIFTPTATVATVQPELGTGSPARPPTPAQVQNLTLRTQQTPAAAASGPTPTQPVLPSLALKPTPGGSQPLPTPAQSRNTAQASPAGAKPGIADSVMEPHKKGDGNSSVPGSMEGRAGLSRTVPAVAAHPLIAPAYAQLQPHQLLPQPSSKHLQPQFVIQQQPQPQQQQPPPQQSRPVLQAEPHPQLASVSPSVALQPSSEAHAMPLGPVTPALPLQCPTANLHKPGGSQQCHPPTPDTGPQNGHPEGVPHTPQRRFQHTSAVILQLQPASPPQQCVPDDWKEVAPGEKSVPETRSGPSPHQQAIVTAMPGGLPVPTSPNIQPSPAHETGQGIVHALTDLSSPGMTSGNGNSASSIAGTAPQNGENKPPQAIVKPQILTHVIEGFVIQEGAEPFPVGRSSLLVGNLKKKYAQGFLPEKLPQQDHTTTTDSEMEEPYLQESKEEGAPLKLKCELCGRVDFAYKFKRSKRFCSMACAKRYNVGCTKRVGLFHSDRSKLQKAGAATHNRRRASKASLPPLTKDTKKQPTGTVPLSVTAALQLTHSQEDSSRCSDNSSYEEPLSPISASSSTSRRRQGQRDLELPDMHMRDLVGMGHHFLPSEPTKWNVEDVYEFIRSLPGCQEIAEEFRAQEIDGQALLLLKEDHLMSAMNIKLGPALKIYARISMLKDS [PHC2] | -0.368 | 0.555
8 | METDESPSPLPCGPAGEAVMESRARPFQALPREQSPPPPLQTSSGAEVMDVGSGGDGQSELPAEDPFNFYGASLLSKGSFSKGRLLIDPNCSGHSPRTARHAPAVRKFSPDLKLLKDVKISVSFTESCRSKDRKVLYTGAERDVRAECGLLLSPVSGDVHACPFGGSVGDGVGIGGESADKKDEENELDQEKRVEYAVLDELEDFTDNLELDEEGAGGFTAKAIVQRDRVDEEALNFPYEDDFDNDVDALLEEGLCAPKKRRTEEKYGGDSDHPSDGETSVQPMMTKIKTVLKSRGRPPTEPLPDGWIMTFHNSGVPVYLHRESRVVTWSRPYFLGTGSIRKHDPPLSSIPCLHYKKMKDNEEREQSSDLTPSGDVSPVKPLSRSAELEFPLDEPDSMGADPGPPDEKDPLGAEAAPGALGQVKAKVEVCKDESVDLEEFRSYLEKRFDFEQVTVKKFRTWAERRQFNREMKRKQAESERPILPANQKLITLSVQDAPTKKEFVINPNGKSEVCILHEYMQRVLKVRPVYNFFECENPSEPFGASVTIDGVTYGSGTASSKKLAKNKAARATLEILIPDFVKQTSEEKPKDSEELEYFNHISIEDSRVYELTSKAGLLSPYQILHECLKRNHGMGDTSIKFEVVPGKNQKSEYVMACGKHTVRGWCKNKRVGKQLASQKILQLLHPHVKNWGSLLRMYGRESSKMVKQETSDKSVIELQQYAKKNKPNLHILSKLQEEMKRLAEEREETRKKPKMSIVASAQPGGEPLCTVDV [DGCR8] | -0.452 | 0.0203
9 | MDEEPERTKRWEGGYERTWEILKEDESGSLKATIEDILFKAKRKRVFEHHGQVRLGMMRHLYVVVDGSRTMEDQDLKPNRLTCTLKLLEYFVEEYFDQNPISQIGIIVTKSKRAEKLTELSGNPRKHITSLKEAVDMTCHGEPSLYNSLSMAMQTLKHMPGHTSREVLIIFSSLTTCDPSNIYDLIKTLKAAKIRVSVIGLSAEVRVCTVLARETGGTYHVILDESHYKELLTHHLSPPPASSSSECSLIRMGFPQHTIASLSDQDAKPSFSMAHLDGNTEPGLTLGGYFCPQCRAKYCELPVECKICGLTLVSAPHLARSYHHLFPLDAFQEIPLEEYNGERFCYGCQGELKDQHVYVCAVCQNVFCVDCDVFVHDSLHCCPGCIHKIPAPSGV [GTF2H2C] | -0.398 | 0.181
10 | MLEPQENGVIDLPDYEHVEDETFPPFPPPASPERQDGEGTEPDEESGNGAPVRVPPKRTVKRNIPKLDAQRLISERGLPALRHVFDKAKFKGKGHEAEDLKMLIRHMEHWAHRLFPKLQFEDFIDRVEYLGSKKEVQTCLKRIRLDLPILHEDFVSNNDEVAENNEHDVTSTELDPFLTNLSESEMFASELSRSLTEEQQQRIERNKQLALERRQAKLLSNSQTLGNDMLMNTPRAHTVEEVNTDEDQKEESNGLNEDILDNPCNDAIANTLNEEETLLDQSFKNVQQQLDATSRNITEAR [TIPIN] | 0.321 | 0.273
11 | MSGGEVVCSGWLRKSPPEKKLKRYAWKRRWFVLRSGRLTGDPDVLEYYKNDHAKKPIRIIDLNLCQQVDAGLTFNKKEFENSYIFDINTIDRIFYLVADSEEEMNKWVRCICDICGFNPTEEDPVKPPGSSLQAPADLPLAINTAPPSTQADSSSATLPPPYQLINVPPHLETLGIQEDPQDYLLLINCQSKKPEPTRTHADSAKSTSSETDCNDNVPSHKNPASSQSKHGMNGFFQQQMIYDSPPSRAPSASVDSSLYNLPRSYSHDVLPKVSPSSTEADGELYVFNTPSGTSSVETQMRHVSISYDIPPTPGNTYQIPRTFPEGTLGQTSKLDTIPDIPPPRPPKPHPAHDRSPVETCSIPRTASDTDSSYCIPTAGMSPSRSNTISTVDLNKLRKDASSQDCYDIPRAFPSDRSSSLEGFHNHFKVKNVLTVGSVSSEELDENYVPMNPNSPPRQHSSSFTEPIQEANYVPMTPGTFDFSSFGMQVPPPAHMGFRSSPKTPPRRPVPVADCEPPPVDRNLKPDRKVKPAPLEIKPLPEWEELQAPVRSPITRSFARDSSRFPMSPRPDSVHSTTSSSDSHDSEENYVPMNPNLSSEDPNLFGSNSLDGGSSPMIKPKGDKQVEYLDLDLDSGKSTPPRKQKSSGSGSSVADERVDYVVVDQQKTLALKSTREAWTDGRQSTESETPAKSVK [GAB1] | 0.368 | -0.296
12 | MYTITKGPSKLVAQRRTGPTQQQVEGRLGELLKCRQPAPPTSQPPRAQPFAQPPGPWPLSSPGPRLVFNRVNGRRAPSTSPSFEGTQETYTVAHEENVRFVSEAWQQVQQQLDGGPAGEGGPRPVQYVERTPNPRLQNFVPIDLDEWWAQQFLARITSCS [FAM195A] | -0.457 | 0.195
